Data taken from PMC8809517, “Cofactor-independent RNA editing by a synthetic S-type PPR protein”.

T1: GFP-9S library array, motif 4 ND N98P;D124H (synthetic construct, N98P;D124H)
T1 chain: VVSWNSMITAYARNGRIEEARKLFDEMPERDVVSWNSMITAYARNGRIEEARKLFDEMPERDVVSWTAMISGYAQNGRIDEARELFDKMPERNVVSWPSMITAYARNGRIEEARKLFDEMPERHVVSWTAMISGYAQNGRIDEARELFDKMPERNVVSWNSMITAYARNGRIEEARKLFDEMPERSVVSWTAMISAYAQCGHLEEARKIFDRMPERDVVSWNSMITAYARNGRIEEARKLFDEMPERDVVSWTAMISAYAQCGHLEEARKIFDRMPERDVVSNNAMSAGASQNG

T2: GFP-9S library array, motif 4 ND N98Y;D124I (synthetic construct, N98Y;D124I)
T2 chain: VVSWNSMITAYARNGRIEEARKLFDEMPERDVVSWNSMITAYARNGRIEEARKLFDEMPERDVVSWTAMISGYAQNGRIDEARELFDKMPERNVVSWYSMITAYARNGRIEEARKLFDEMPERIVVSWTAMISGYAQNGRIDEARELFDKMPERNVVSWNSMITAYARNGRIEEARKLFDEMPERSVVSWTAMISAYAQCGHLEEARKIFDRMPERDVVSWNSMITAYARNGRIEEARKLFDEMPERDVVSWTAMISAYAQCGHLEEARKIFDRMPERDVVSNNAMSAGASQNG

T3: GFP-9S library array, motif 4 ND N98M;D124C (synthetic construct, N98M;D124C)
T3 chain: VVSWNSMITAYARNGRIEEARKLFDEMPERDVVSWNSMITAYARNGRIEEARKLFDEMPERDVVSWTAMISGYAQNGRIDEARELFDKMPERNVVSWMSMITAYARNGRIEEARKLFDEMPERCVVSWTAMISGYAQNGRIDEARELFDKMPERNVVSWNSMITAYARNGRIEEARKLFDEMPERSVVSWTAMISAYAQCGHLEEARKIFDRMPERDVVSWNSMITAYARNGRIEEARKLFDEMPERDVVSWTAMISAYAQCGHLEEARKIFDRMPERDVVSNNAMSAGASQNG

T4: GFP-9S library array, motif 4 ND D124N (synthetic construct, D124N)
T4 chain: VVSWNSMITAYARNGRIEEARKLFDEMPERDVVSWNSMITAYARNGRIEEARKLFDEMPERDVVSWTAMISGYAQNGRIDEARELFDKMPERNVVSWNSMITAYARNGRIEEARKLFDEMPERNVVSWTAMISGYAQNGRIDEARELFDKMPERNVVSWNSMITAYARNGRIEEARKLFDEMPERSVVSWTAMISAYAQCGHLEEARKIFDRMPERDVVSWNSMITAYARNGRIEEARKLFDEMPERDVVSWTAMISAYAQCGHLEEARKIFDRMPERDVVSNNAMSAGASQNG

T5: GFP-9S library array, motif 4 ND N98W;D124M (synthetic construct, N98W;D124M)
T5 chain: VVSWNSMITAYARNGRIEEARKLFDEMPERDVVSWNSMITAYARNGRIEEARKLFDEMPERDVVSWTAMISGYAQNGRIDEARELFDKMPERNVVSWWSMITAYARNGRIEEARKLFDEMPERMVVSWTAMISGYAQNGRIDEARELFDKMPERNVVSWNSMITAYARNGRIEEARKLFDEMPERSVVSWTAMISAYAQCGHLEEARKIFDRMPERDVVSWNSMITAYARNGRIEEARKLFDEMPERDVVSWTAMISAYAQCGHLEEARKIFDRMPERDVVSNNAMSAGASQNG


Tests used:
Test in all cases: high-throughput RNA pulldown from lysate on Ni-NTA beads; HRP: 50 mM Tris pH 8, 150 mM NaCl, 1 mM beta-mercaptoethanol, 50 ug/ml BSA, 3 ug/ml yeast RNA, 0.5% heparin; ITC and FP: Tris pH 8, 200 mM KCl, 5% glycerol; MST: 50 mM Tris pH 8, 200 mM NaCl, 1 mM DTT, BSA, heparin, 0.05% Tween 20
Conditions in all cases: tags: N-terminal His-eGFP
[1] = biological target: T1, GFP-9S library array, motif 4 ND …
[2] = biological target: T2, GFP-9S library array, motif 4 ND …
[3] = biological target: T3, GFP-9S library array, motif 4 ND …
[4] = biological target: T4, GFP-9S library array, motif 4 ND D124N
[5] = biological target: T5, GFP-9S library array, motif 4 ND …

| Binder | Kd ([1]; label: 5' Cy5) | Kd ([2]; label: 5' Cy5) | Kd ([3]; label: 5' Cy5) | Kd ([4]; label: 5' Cy5) | Kd ([5]; label: 5' Cy5) | Kd ([1]; label: 5' IRDye 800CW) | Kd ([2]; label: 5' IRDye 800CW) | Kd ([3]; label: 5' IRDye 800CW) | Kd ([4]; label: 5' IRDye 800CW) | Kd ([5]; label: 5' IRDye 800CW) |
| --- | --- | --- | --- | --- | --- | --- | --- | --- | --- | --- |
| AUUAGACGUGA (ssRNA) [Cy5-rpoA-G] | 143 nM | 112 nM | 68.8 nM | 178 nM | 102 nM |  |  |  |  |  |
| AUUAUACGUGA (ssRNA) [IR-rpoA-U] |  |  |  |  |  | 143 nM | 340 nM | 193 nM | 11.6 nM | 175 nM |
| AUUACACGUGA (ssRNA) [Cy5-rpoA] | 94.4 nM | 109 nM | 99.7 nM | 3.13 nM | 96.1 nM |  |  |  |  |  |
| AUUAAACGUGA (ssRNA) [IR-rpoA-A] |  |  |  |  |  | 332 nM | 347 nM | 85.3 nM | 114 nM | 235 nM |
